The values below are quoted from earlier work in paper PMC9866218, “Characterization and Chemical Synthesis of Cm39 (α-KTx 4.8): A Scorpion Toxin That Inhibits Voltage-Gated K^+ Channel KV1.2 and Small- and Intermediate-Conductance Ca^2+-Activated K^+ Channels KCa2.2 and KCa3.1” (Toxins, 2023).

The target in data set [1] is KCa3.1 (Homo sapiens) (UniProt O15554).
Data set [2] shares this target. This is another data set of the same source.

Read-outs that look alike come from different tables or passages of the source.

KCa3.1 (Homo sapiens), sequence (O15554 whole entry): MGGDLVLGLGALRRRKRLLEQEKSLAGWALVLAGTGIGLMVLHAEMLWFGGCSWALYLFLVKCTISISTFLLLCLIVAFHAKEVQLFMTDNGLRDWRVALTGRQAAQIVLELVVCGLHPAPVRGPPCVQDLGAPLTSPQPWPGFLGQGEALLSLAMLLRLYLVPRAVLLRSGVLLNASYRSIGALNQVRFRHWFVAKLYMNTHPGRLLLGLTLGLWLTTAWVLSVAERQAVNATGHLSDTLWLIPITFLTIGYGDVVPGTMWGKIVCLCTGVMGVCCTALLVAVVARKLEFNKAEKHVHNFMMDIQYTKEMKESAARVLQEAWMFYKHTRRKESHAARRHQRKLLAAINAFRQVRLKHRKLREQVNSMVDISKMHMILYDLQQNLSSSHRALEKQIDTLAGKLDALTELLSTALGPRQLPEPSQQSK
charybdotoxin (ChTx, α-KTx-1.1), sequence (P13487 23-59): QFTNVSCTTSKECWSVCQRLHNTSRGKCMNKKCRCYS
maurotoxin (MTX, α-KTx-6.2), sequence (P80719 whole entry): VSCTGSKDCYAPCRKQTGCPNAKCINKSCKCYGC

By Kd is commonly meant the constant that tells how readily two partners part at equilibrium. Turning to “charybdotoxin (ChTx, α-KTx-1.1) (from UniProt P13487)”, the Kd with KCa3.1 (Homo sapiens) [1] is 5 nM.

Take “maurotoxin (MTX, α-KTx-6.2) (from UniProt P80719)”: in the data set with KCa3.1 (Homo sapiens) [2], the Kd is 1 nM.
